Assay results taken from patent publication US20070031855A1 (UNIVERSITY OF WYOMING, published 2007).

Target: CryIAb toxin of Bacillus thuringiensis (Bacillus thuringiensis, UniProt P0A370 29-607, 125I-labeled (probe in blots and in the cell binding assay; the unlabeled toxin was the competitor))

B1: Recombinant BT-R1 protein expressed from the BT-R1 cDNA in pcDNA3 in mammalian cells (receptor)
chain: QERCGYMTAIPRLPRPDNLPVLNFEGQTWSQRPLLPAPERDDLCMDAYHVITANLGTQVIYMDEEIEDEITIAILNYNGPSTPFIELPFLSGSYNLLMPVIRRVDNGEWHLIITQRQHYELPGMQQYMFNVRVDGQSLVAGVSLAIVNIDDNAPIIQNFEPCRVPELGEPGLTECTYQVSDADGRISTEFMTFRIDSVRGDEETFYIERTNIPNQWMWLNMTIGVNTSLNFVTSPLHIFSVTALDSLPNTHTVTMMVQVANVNSRPPRWLEIFAVQQFEEKSYQNFTVRAIDGDTEINMPINYRLITNEEDTFFSIEALPGGKSGAVFLVSPIDRDTLQREVFPLTIVAYKYDEEAFSTSTNVVIIVTDINDQRPEPIHKEYRLAIMEETPLTLNFDKEFGFHDKDLGQNAQYTVRLESVDPPGAAEAFYIAPEVGYQRQTFIMGTLNHSMLDYEVPEFQSITIRVVATDNNDTRHVGVALVHIDLINWNDEQPIFEHAVQTVTFDETEGEGFFVAKAVAHDRDIGDVVEHTLLGNAVNFLTIDKLTGDIRVSANDSFNYHRESELFVQVRATDTLGEPFHTATSQLVIRLNDINNTPPTLRLPRGSPQVEENVPDGHVITQELRATDPDTTADLRFEINWDTSFATKQGRQANPDEFRNCVEIETIFPEINNRGLAIGRVVAREIRHNVTIDYEEFEVLSLTVRVRDLNTVYGDDYDESMLTITIIDMNDNAPVWVEGTLEQNFRVREMSAGGLVVGSVRADDIDGPLYNQVRYTIFPREDTDKDLIMIDFLTGQISVNTSGAIDADTPPRFHLYYTVVASDRCSTEDPADCPPDPTYWETEGNITIHITDTNNKVPQAETTKFDTVVYIYENATHLDEVVTLIASDLDRDEIYHTVSYVINYAVNPRLMNFFSVNRETGLVYVDYETQGSGEVLDRDGDEPTHRIFFNLIDNFMGEGEGNRNQNDTEVLVILLDVNDNAPELPPPSELSWTISENLKQGVRLEPHIFAPDRDEPDTDNSRVGYEILNLSTERDIEVPELFVMIQIANVTGELETAMDLKGYWGTYAIHIRAFDHGIPQMSMNETYELIIHPFNYYAPEFVFPTNDAVIRLARERAVINGVLATVNGEFLERISATDPDGLHAGVVTFQVVGDEESQRYFQVVNDGENLGSLRLLQAVPEEIREFRITIRATDQGTDPGPLSTDMTFRVVFVPTQGEPRFASSEHAVAFIEKSAGMEESHQLPLAQDIKNHLCEDDCHSIYYRIIDGNSEGHFGLDPVRNRLFLKKELIREQSASHTLQVAASNSPDGGIPLPASILTVTVTVREADPRPVFVRELYTAGISTADSIGRELLRLHATQSEGSAITYAIDYDTMVVDPSLEAVRQSAFVLNAQTGVLTLNIQPTATMHGLFKFEVTATDTAGAQDRTDVTVYVVSSQNRVYFVFVNTLQQVEDNRDFIADTFSAGFNMTCNIDQVVPANDPVTGVALEHSTQMRGHFIRDNVPVLADEIEQIRSDLVLLSSIQTTLAARSLVLQDLLTNSSPDSAPDSSLTVYVLASLSAVLGFMCLVLLLTFIIRTRALNRRLEALSMTKYGSLDSGLNRAGIAAPGTNKHTVEGSNPIFNEAIKTPDLDAISEGSNDSDLIGIEDLPHFGNVFMDPEVNEKANGYPEVANHNNNFAFNPTPFSPEFVNGQFRKI
modifications: N-glycosylated (210 kD)
Kd: 1.01 nM
